Read-outs that look alike come from different tables or passages of the source. One block for each molecule: values may come before it.
Key:
Experiment in all cases: SPR
[1] = target: recombinant matrilin-3 A-domain (human) (UniProt O15232)
[2] = target: T1, full-length type IX collagen (human, UniProt P20849 24-921; Q14055 24-689; Q14050 26-684)
[3] = target: T1, full-length type IX collagen; remark: listed apart in the source

Kd [1]: 3.25 nM
Molecule: vitreous form of human type IX collagen (from UniProt Q14055 24-689; Q14050 26-684) (complex)

Kd [2]: 1.37 nM
B1: recombinant matrilin-3 A-domain (domain or fragment, human, UniProt O15232 76-263, looked up)
chain: VCKSRPLDLVFIIDSSRSVRPLEFTKVKTFVSRIIDTLDIGPADTRVAVVNYASTVKIEFQLQAYTDKQSLKQAVGRITPLSTGTMSGLAIQTAMDEAFTVEAGAREPSSNIPKVAIIVTDGRPQDQVNEVAARAQASGIELYAVGVDRADMASLKMMASEPLEEHVFYVETYGVIEKLSSRFQETFC

Kd [3]: 1.5 nM
B2: full-length matrilin-3 (natural protein, UniProt O15232 29-486, looked up)
chain: DPVARPGFRRLETRGPGGSPGRRPSPAAPDGAPASGTSEPGRARGAGVCKSRPLDLVFIIDSSRSVRPLEFTKVKTFVSRIIDTLDIGPADTRVAVVNYASTVKIEFQLQAYTDKQSLKQAVGRITPLSTGTMSGLAIQTAMDEAFTVEAGAREPSSNIPKVAIIVTDGRPQDQVNEVAARAQASGIELYAVGVDRADMASLKMMASEPLEEHVFYVETYGVIEKLSSRFQETFCALDPCVLGTHQCQHVCISDGEGKHHCECSQGYTLNADKKTCSALDRCALNTHGCEHICVNDRSGSYHCECYEGYTLNEDRKTCSAQDKCALGTHGCQHICVNDRTGSHHCECYEGYTLNADKKTCSVRDKCALGSHGCQHICVSDGAASYHCDCYPGYTLNEDKKTCSATEEARRLVSTEDACGCEATLAFQDKVSSYLQRLNTKLDDILEKLKINEYGQIHR
